Results: the supplement of paper PMC9942255
Several values for one entry are separate records, joined by “and”; a condition that tells them apart may be missing. Identical values can stand only once.

Tested on: Bacillus subtilis DB104 (SP-AmyQ fusion secretion)
Test: AmyQ secretion efficiency, weighted average sort bin (1 = best secretion, 10 = worst) (bin number (weighted average, 1-10)); higher = lower secretion efficiency
Summary of the method: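 The secretion score was taken as the read-frequency-weighted mean bin number, normalised to beads per bin, with low-abundance sequences excluded. Bins came from large-particle flow cytometry sorting of occupied alginate beads (~65 nL, about 0.3 cells each, with fluorescein-starch) into 10 equally populated groups by green/red fluorescence ratio after about 13 h at room temperature and nile red staining. The cells were a B. subtilis DB104 library with mature AmyQ fused to designed signal peptides, integrated at amyE, and each bin's amplicons were Illumina-sequenced.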

Sequence: MTMLRKIIGWILLLCIIPLFAFTVIASQKEV
- AmyQ secretion efficiency: 6.87

Sequence: MTMLRKIIGWILLLCIIPLFAFTVIASRKEV
- AmyQ secretion efficiency: 6.1

Sequence: MTMLRKIIGWILLLCIIPLFAFTVIASSKEV
- AmyQ secretion efficiency: 6.98

Sequence: MTMLRKIIGWILLLCIIPLFAFTVIASTKEV
- AmyQ secretion efficiency: 7.17

Sequence: MTMLRKIIGWILLLCIIPLFAFTVIASVKEV
- AmyQ secretion efficiency: 7.89

Sequence: MTMLRKIIGWILLLCIIPLFAFTVIASWKEV
- AmyQ secretion efficiency: 5.23

Sequence: MTMLRKIIGWILLLCIIPLFAFTVIASYKEV
- AmyQ secretion efficiency: 6.87

Sequence: MTMLRKIIGWILLLCIIPLFAFTVICSGKEV
- AmyQ secretion efficiency: 7.14

Sequence: MTMLRKIIGWILLLCIIPLFAFTVIDSGKEV
- AmyQ secretion efficiency: 6.22

Sequence: MTMLRKIIGWILLLCIIPLFAFTVIESGKEV
- AmyQ secretion efficiency: 6.44

Sequence: MTMLRKIIGWILLLCIIPLFAFTVIGSGKEV
- AmyQ secretion efficiency: 6.78

Sequence: MTMLRKIIGWILLLCIIPLFAFTVIHSGKEV
- AmyQ secretion efficiency: 6.94

Sequence: MTMLRKIIGWILLLCIIPLFAFTVIISGKEV
- AmyQ secretion efficiency: 5.66

Sequence: MTMLRKIIGWILLLCIIPLFAFTVIMSGKEV
- AmyQ secretion efficiency: 7.42

Sequence: MTMLRKIIGWILLLCIIPLFAFTVINSGKEV
- AmyQ secretion efficiency: 6.45

Sequence: MTMLRKIIGWILLLCIIPLFAFTVIPSGKEV
- AmyQ secretion efficiency: 8.07

Sequence: MTMLRKIIGWILLLCIIPLFAFTVIPVVTVASGKEV
- AmyQ secretion efficiency: 4.51

Sequence: MTMLRKIIGWILLLCIIPLFAFTVIQSGKEV
- AmyQ secretion efficiency: 6.03

Sequence: MTMLRKIIGWILLLCIIPLFAFTVIRSGKEV
- AmyQ secretion efficiency: 7.52

Sequence: MTMLRKIIGWILLLCIIPLFAFTVISSGKEV
- AmyQ secretion efficiency: 6.13

Sequence: MTMLRKIIGWILLLCIIPLFAFTVITSGKEV
- AmyQ secretion efficiency: 6.41

Sequence: MTMLRKIIGWILLLCIIPLFAFTVIVSGKEV
- AmyQ secretion efficiency: 5.52

Sequence: MTMLRKIIGWILLLCIIPSKQQSSIASGKEV
- AmyQ secretion efficiency: 6.84

Sequence: MTMLRKIIGWILLLCIIVSVAATITLIPLFAFTVIASGKEV
- AmyQ secretion efficiency: 4.26

Sequence: MTMLRKIIGWILLLCPLFAFTVIASGKEV
- AmyQ secretion efficiency: 8.01

Sequence: MTMLRKIRKWILLLCIIPLFAFTVIASGKEV
- AmyQ secretion efficiency: 6.76

Sequence: MTMLRKIRRKKLLLCIIPLFAFTVIASGKEV
- AmyQ secretion efficiency: 6.88

Sequence: MTMLRKIRRKRKRLCIIPLFAFTVIASGKEV
- AmyQ secretion efficiency: 6.99

Sequence: MTMLRKKGRWSLLLCIIPLFAFTVIASGKEV
- AmyQ secretion efficiency: 6.17

Sequence: MTMLRKKTGWILLLCIIPLFAFTVIASGKEV
- AmyQ secretion efficiency: 3.88

Sequence: MTMLRKNMSIIGWILLLCIIPLFAFTVIASGKEV
- AmyQ secretion efficiency: 5.45

Sequence: MTMLSMIIGWILLLCIIPLFAFTVIASGKEV
- AmyQ secretion efficiency: 7.31

Sequence: MTMSSGMSSILAVSVLLLLSRLPVQASLTSE
- AmyQ secretion efficiency: 4.1

Sequence: MTQFAITLSVLCALILLVPTLLVIPFQHNKEAGASV
- AmyQ secretion efficiency: 7.59

Sequence: MTRFILVLSFLSIIVAYPIQTNASPM
- AmyQ secretion efficiency: 5.75

Sequence: MTRLLSTLLIGIMLLTFAPSAFAKQD
- AmyQ secretion efficiency: 1.6

Sequence: MTRTGAIIAAVIVIAALITFNVRNASPG
- AmyQ secretion efficiency: 7.74

Sequence: MTSAFILSAAAAVGLFTFGGVQQASAKEL
- AmyQ secretion efficiency: 2.86

Sequence: MTSGTFIIWTIILGALLVCCIAVAYTLTKSQAGASSS
- AmyQ secretion efficiency: 4.88

Sequence: MTSGTLWISLLFALTLIFTMAFSNMSAQAAGK
- AmyQ secretion efficiency: 2.62

Sequence: MTSLMMLSMLTVMIASLFIFSSQALAVQY
- AmyQ secretion efficiency: 3.98

Sequence: MTSSGFTVFLILLLMLTLVVAPKEKAEAASS
- AmyQ secretion efficiency: 1.98

Sequence: MTSSGGMFIVFICFFVLFSVHPIAAAAADS
- AmyQ secretion efficiency: 6.41

Sequence: MTSSLIGFLVLVPALIMSGITLIEANKK
- AmyQ secretion efficiency: 3.95

Sequence: MTTAAAVLLSLGLVFGFSYGAGHVAEAKTK
- AmyQ secretion efficiency: 2.82

Sequence: MTTGLLASLVLCLSLSPLVSTNEVFAATT
- AmyQ secretion efficiency: 4.99

Sequence: MTTKFKKKRRFLLCFMPAAKIEHTQASLL
- AmyQ secretion efficiency: 7.76

Sequence: MTTKFTALAVFLKEHTQASLL
- AmyQ secretion efficiency: 6.23

Sequence: MTTKFTALAVFLLCFMPAAKIEHTQASLL
- AmyQ secretion efficiency: 4.17

Sequence: MTTKFTALAVFLLCFMPAAKIKRKHTQASLL
- AmyQ secretion efficiency: 7.32

Sequence: MTTKFTALAVFLLCFMPAAVIEHTQASLL
- AmyQ secretion efficiency: 5.46

Sequence: MTTKYSKQSKQLLCFMPAAKIEHTQASLL
- AmyQ secretion efficiency: 7.85

Sequence: MTTTAWFLPLVCVLLISGWLAPAASASAQTT
- AmyQ secretion efficiency: 2.09

Sequence: MTTTIAWFLPLVCVLLISGWLAPAASASAQTT
- AmyQ secretion efficiency: 2.38

Sequence: MTTTSIFVITCVMAASLTLGSLLPAGYASAKED
- AmyQ secretion efficiency: 3.58

Sequence: MTTWIVLFLVLIAAAISIFVYVSTGSEK
- AmyQ secretion efficiency: 8.09

Sequence: MTVPITMLLSTAAGLLLSLTATSVSAHYV
- AmyQ secretion efficiency: 6.06

Sequence: MTVPKTMLLSTAAGLLLSLTATSVSAHYV
- AmyQ secretion efficiency: 6.58

Sequence: MVKKWLIMFAVMLGVLMTFTYSASAVGV
- AmyQ secretion efficiency: 1.93

Sequence: MVKKWLIQFAVMLSVLSKKRRKKASAVGV
- AmyQ secretion efficiency: 7.67

Sequence: MVKKWLIQFAVMLSVLSTFTYSASAVGV
- AmyQ secretion efficiency: 3.04 and 1.99

Sequence: MVKKWLIQFAVMLSVLSTFTYSASIVGV
- AmyQ secretion efficiency: 8.01

Sequence: MVKKWLRRRRVMLSVLSTFTYSASAVGV
- AmyQ secretion efficiency: 6.88
